Experimental data from publication PMC1140373 (Nucleic Acids Research, 2005).
Positions count from the first letter of the chain named. Names and notes keep the numbering of the source.

T1: Human TFIIEα, wild type, N-terminal FLAG tag (human, UniProt P29083 1-439)
T1 sequence (looked up): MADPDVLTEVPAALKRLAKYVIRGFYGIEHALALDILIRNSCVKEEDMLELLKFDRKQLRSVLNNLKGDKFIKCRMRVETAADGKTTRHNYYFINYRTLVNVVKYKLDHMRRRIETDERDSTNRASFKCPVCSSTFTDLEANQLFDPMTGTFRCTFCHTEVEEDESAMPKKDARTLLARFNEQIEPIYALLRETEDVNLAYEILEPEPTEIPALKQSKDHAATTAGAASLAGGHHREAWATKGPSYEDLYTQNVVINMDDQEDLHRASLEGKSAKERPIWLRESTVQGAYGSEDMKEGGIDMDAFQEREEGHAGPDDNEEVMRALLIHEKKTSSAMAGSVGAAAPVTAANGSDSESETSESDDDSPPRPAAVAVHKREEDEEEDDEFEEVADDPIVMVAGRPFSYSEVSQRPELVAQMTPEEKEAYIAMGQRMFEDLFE

T2: FLAG-tagged wild type TFIIEβ (human, UniProt P29084 1-291)
T2 sequence (looked up): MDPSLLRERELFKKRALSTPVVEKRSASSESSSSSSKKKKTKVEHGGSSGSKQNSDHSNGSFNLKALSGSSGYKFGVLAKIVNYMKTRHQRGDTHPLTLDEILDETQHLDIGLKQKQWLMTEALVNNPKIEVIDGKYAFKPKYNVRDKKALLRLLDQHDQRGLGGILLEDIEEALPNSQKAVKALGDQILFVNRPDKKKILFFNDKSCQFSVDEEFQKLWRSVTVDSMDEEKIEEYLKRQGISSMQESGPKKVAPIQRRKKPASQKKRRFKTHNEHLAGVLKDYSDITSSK

B1: Human TFIIEβ, wild type, His6 tagged (natural protein, UniProt P29084 1-291, looked up)
chain: T2 sequence (looked up)
B2: Human TFIIEβ I171S, His6 tagged (natural protein, UniProt P29084 1-291, looked up)
chain: T2 sequence (looked up) with I171S
B3: Human TFIIEβ I189S, His6 tagged (natural protein, UniProt P29084 1-291, looked up)
chain: T2 sequence (looked up) with I189S

Tests used:
[1] = target: T3, Glutathione S-transferase (GST)-tagged human XPB (human, UniProt P19447 1-782); test: cell-based or functional assay
co-IP = target: the molecule itself; test: co-IP
[2] = target: T1, Human TFIIEα, wild type, N-terminal …; test: pull-down
[3] = target: T2, FLAG-tagged wild type TFIIEβ; test: co-IP
[4] = target: T1, Human TFIIEα, wild type, N-terminal …; test: co-IP
[5] = target: T3, Glutathione S-transferase (GST)-tagged …; test: pull-down

T3 sequence (P19447 whole entry): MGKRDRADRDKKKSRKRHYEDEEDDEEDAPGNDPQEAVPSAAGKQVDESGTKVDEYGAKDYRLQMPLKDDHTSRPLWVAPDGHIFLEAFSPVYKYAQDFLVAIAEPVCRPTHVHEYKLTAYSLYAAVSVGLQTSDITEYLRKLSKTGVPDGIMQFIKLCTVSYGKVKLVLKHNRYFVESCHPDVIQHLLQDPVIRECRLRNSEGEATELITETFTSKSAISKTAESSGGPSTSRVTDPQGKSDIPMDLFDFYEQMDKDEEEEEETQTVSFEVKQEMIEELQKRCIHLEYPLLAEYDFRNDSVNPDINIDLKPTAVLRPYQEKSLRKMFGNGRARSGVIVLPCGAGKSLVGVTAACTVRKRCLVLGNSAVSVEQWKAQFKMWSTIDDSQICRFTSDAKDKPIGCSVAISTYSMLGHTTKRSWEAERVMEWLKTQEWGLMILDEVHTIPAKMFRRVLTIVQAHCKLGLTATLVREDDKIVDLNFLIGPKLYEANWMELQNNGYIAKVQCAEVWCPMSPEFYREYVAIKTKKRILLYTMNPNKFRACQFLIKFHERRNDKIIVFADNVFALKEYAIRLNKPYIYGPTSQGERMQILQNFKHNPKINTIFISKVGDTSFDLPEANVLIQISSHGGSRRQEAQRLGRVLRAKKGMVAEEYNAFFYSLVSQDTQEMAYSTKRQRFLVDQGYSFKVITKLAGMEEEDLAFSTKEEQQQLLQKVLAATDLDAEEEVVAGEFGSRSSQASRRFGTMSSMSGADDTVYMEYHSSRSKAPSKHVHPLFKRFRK

Row | Binder | stimulation of XPB helicase activity, 2 μg of XPB and 1.2 μg of wild-type TFIIEβ [1] | binding result (co-IP) | binding result [2] | binding result [3] | binding result [4] | binding result [5]
1 | B1 | 3 fold | binds | binds |  |  | 
2 | B2 |  |  |  | binds | binds | binds
3 | B3 |  |  |  | binds | binds | binds
